Data reported in the supplement of paper PMC9112550, “Optimization of the antimicrobial peptide Bac7 by deep mutational scanning” (BMC Biology, 2022).

Test system: Escherichia coli TOP10
Assay: shrunken log2 fold change of peptide-encoding DNA abundance (4.5 h post-induction vs induction); higher = less antimicrobial activity (less host growth inhibition)
Conditions: time post-induction: 4.5 h; library: site-saturation at positions 5, 18, 19, 20
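Further: peptides expressed intracellularly from a pBAD plasmid library in pooled LB shake-flask culture, induced with 0.3% L-arabinose, DNA abundance read by NGS, three biological replicates, DESeq2 with apeglm shrinkage.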

| Sequence | shrunken log2 fold change |
| --- | --- |
| RRIRVRPPRLPRPRPRPTDCPRP | -0.184 |
| RRIRRRPPRLPRPRPRPFWVPRP | 0.236 |
| RRIRWRPPRLPRPRPRPYFTPRP | -0.624 |
| RRIRQRPPRLPRPRPRPIRGPRP | -0.0547 |
| RRIRWRPPRLPRPRPRPHFPPRP | 0.064 |
| RRIRCRPPRLPRPRPRPKFGPRP | 0.231 |
| RRIRKRPPRLPRPRPRPHEPPRP | 0.0467 |
| RRIRTRPPRLPRPRPRPINFPRP | -0.0833 |
| RRIRMRPPRLPRPRPRPIHQPRP | -0.108 |
| RRIRMRPPRLPRPRPRPGTKPRP | 0.844 |
| RRIRERPPRLPRPRPRPEYWPRP | 0.126 |
| RRIRCRPPRLPRPRPRPPSSPRP | -0.0857 |
| RRIRTRPPRLPRPRPRPSANPRP | -0.0622 |
| RRIRQRPPRLPRPRPRPMNEPRP | -0.0541 |
| RRIRQRPPRLPRPRPRPMENPRP | -0.0199 |
| RRIRARPPRLPRPRPRPEMPPRP | 0.981 |
| RRIRRRPPRLPRPRPRPASMPRP | 0.0911 |
| RRIRPRPPRLPRPRPRPGPGPRP | 0.621 |
| RRIRGRPPRLPRPRPRPRETPRP | 1.86 |
| RRIRARPPRLPRPRPRPELLPRP | 0.961 |
| RRIRMRPPRLPRPRPRPEDQPRP | 0.0267 |
| RRIRVRPPRLPRPRPRPPYCPRP | -0.0177 |
| RRIRYRPPRLPRPRPRPEWKPRP | -0.000687 |

| Sequence | shrunken log2 fold change |
| --- | --- |
| RRIRQRPPRLPRPRPRPETQPRP | 0.0133 |
| RRIRCRPPRLPRPRPRPVENPRP | 0.112 |
| RRIRLRPPRLPRPRPRPNLMPRP | -0.367 |
| RRIRIRPPRLPRPRPRPGERPRP | -0.0896 |
| RRIRFRPPRLPRPRPRPFDLPRP | -0.352 |
| RRIRQRPPRLPRPRPRPWTNPRP | -0.00183 |
| RRIRVRPPRLPRPRPRPLGVPRP | -0.116 |
| RRIRSRPPRLPRPRPRPIMGPRP | -0.0258 |
| RRIRNRPPRLPRPRPRPNPTPRP | -0.124 |
| RRIRMRPPRLPRPRPRPQGVPRP | -0.0179 |
| RRIRVRPPRLPRPRPRPHKDPRP | -0.36 |
| RRIRLRPPRLPRPRPRPPDGPRP | 0.0617 |
| RRIRDRPPRLPRPRPRPASKPRP | -0.0758 |
| RRIRYRPPRLPRPRPRPHLLPRP | -0.515 |
| RRIRSRPPRLPRPRPRPEIAPRP | 0.00181 |
| RRIRFRPPRLPRPRPRPRHLPRP | -0.0297 |
| RRIRRRPPRLPRPRPRPWMIPRP | -0.26 |
| RRIRNRPPRLPRPRPRPIIYPRP | -1.06 |
| RRIRVRPPRLPRPRPRPTWYPRP | -0.0971 |
| RRIRPRPPRLPRPRPRPWEPPRP | 0.0548 |
| RRIRARPPRLPRPRPRPPSMPRP | 0.425 |
| RRIRNRPPRLPRPRPRPTAYPRP | -0.184 |
| RRIRLRPPRLPRPRPRPNCGPRP | -0.0908 |

| Sequence | shrunken log2 fold change |
| --- | --- |
| RRIRYRPPRLPRPRPRPRERPRP | 0.126 |
| RRIRDRPPRLPRPRPRPYVRPRP | -0.402 |
| RRIRGRPPRLPRPRPRPKDNPRP | 0.578 |
| RRIRLRPPRLPRPRPRPQMFPRP | -0.427 |
| RRIRNRPPRLPRPRPRPLAEPRP | 0.108 |
| RRIRGRPPRLPRPRPRPFCRPRP | 0.326 |
| RRIRGRPPRLPRPRPRPTYIPRP | 0.111 |
| RRIRFRPPRLPRPRPRPYFKPRP | -0.848 |
| RRIRSRPPRLPRPRPRPYSDPRP | -0.0368 |
| RRIRIRPPRLPRPRPRPYCTPRP | -0.215 |
| RRIRKRPPRLPRPRPRPGYHPRP | 0.0924 |
| RRIRPRPPRLPRPRPRPMWDPRP | -0.0234 |
| RRIRKRPPRLPRPRPRPRHCPRP | 0.0472 |
| RRIRWRPPRLPRPRPRPEECPRP | 0.158 |
| RRIRWRPPRLPRPRPRPAMEPRP | 0.348 |
| RRIRQRPPRLPRPRPRPGDRPRP | 0.132 |
| RRIRDRPPRLPRPRPRPIITPRP | -0.0771 |
| RRIRHRPPRLPRPRPRPGEQPRP | 0.0974 |
| RRIRTRPPRLPRPRPRPFECPRP | -0.143 |
| RRIRHRPPRLPRPRPRPVFMPRP | -0.311 |
| RRIRYRPPRLPRPRPRPCYRPRP | -0.172 |
| RRIRIRPPRLPRPRPRPINQPRP | -0.345 |
| RRIRERPPRLPRPRPRPLICPRP | -0.74 |

| Sequence | shrunken log2 fold change |
| --- | --- |
| RRIRARPPRLPRPRPRPVVVPRP | 0.652 |
| RRIRRRPPRLPRPRPRPEGHPRP | 0.488 |
| RRIRERPPRLPRPRPRPCSHPRP | -0.0193 |
| RRIRFRPPRLPRPRPRPKIMPRP | -0.624 |
| RRIRGRPPRLPRPRPRPYAEPRP | 1.19 |
| RRIRMRPPRLPRPRPRPHLVPRP | -0.0163 |
| RRIRNRPPRLPRPRPRPRWLPRP | 0.558 |
| RRIRFRPPRLPRPRPRPNSEPRP | -0.406 |
| RRIRMRPPRLPRPRPRPTWYPRP | -0.112 |
| RRIRPRPPRLPRPRPRPARWPRP | 0.44 |
| RRIRYRPPRLPRPRPRPSFTPRP | -0.91 |
| RRIRMRPPRLPRPRPRPNVPPRP | 0.0131 |
| RRIRVRPPRLPRPRPRPYVSPRP | -0.084 |
| RRIRWRPPRLPRPRPRPINCPRP | -0.889 |
| RRIRGRPPRLPRPRPRPSATPRP | 3.09 |
| RRIRCRPPRLPRPRPRPPGRPRP | 1.16 |
| RRIRPRPPRLPRPRPRPTGLPRP | 0.156 |
| RRIRRRPPRLPRPRPRPQDVPRP | -0.108 |
| RRIRNRPPRLPRPRPRPHGPPRP | 0.115 |
| RRIRNRPPRLPRPRPRPMPKPRP | -0.0238 |
| RRIRVRPPRLPRPRPRPESTPRP | 0.108 |
| RRIRIRPPRLPRPRPRPSKMPRP | -1.18 |
